Biological target: HoxB13 (CIX-1, Isl-3) (Rattus norvegicus)
Test: EMSA; described as high affinity; competed by 50 ng unlabeled FLAT; 50 mM KCl, 20 mM HEPES pH 7.8, 1 mM EDTA, 20% glycerol, room temperature
Details: tags: GST fusion (pGEX-3X) expressed in E. coli BL21, GST removed by factor Xa; GATC 5' overhangs filled in
Description: For gel shift assays, the labeled fragment was incubated 15 minutes at room temperature with buffer alone (50 mM KCI, 20 mM HEPES pH 7.8, 1 mM EDTA, 20% glycerol, 1 mM DTt and 1 mM PMSF), 1 μl bacterially expressed HoxB13 (see Example 3; "rCIX-1" in FIG. 4), 1 μl HoxB13 and 50 ng unlabeled FLAT DNA ("rCIX-1+50 ng FLAT" in FIG. 4), 5 μg Hela cell nuclear extract, 5 μg RIN cell nuclear extract, 5 μg RIN extract and 50 ng FLAT, 5 μg HeLa extract and 50 ng FLAT (respectively, as shown in FIG. 4). The samples were then run on a 5% acrylamide gel in 0.5× TBE.

Chain of HoxB13 (CIX-1, Isl-3) (Rattus norvegicus) (chain, as listed by the source): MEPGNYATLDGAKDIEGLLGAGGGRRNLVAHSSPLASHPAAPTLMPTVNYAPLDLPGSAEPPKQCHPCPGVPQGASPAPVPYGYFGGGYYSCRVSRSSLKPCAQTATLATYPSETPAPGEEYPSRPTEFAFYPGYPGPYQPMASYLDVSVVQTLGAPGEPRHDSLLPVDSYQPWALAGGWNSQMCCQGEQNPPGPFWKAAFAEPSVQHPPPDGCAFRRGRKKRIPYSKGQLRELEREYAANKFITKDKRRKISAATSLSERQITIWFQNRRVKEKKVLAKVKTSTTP

B1: FLAT element probe (dsDNA)
DNA 1: GATCCCCTTGTTAATAATCTAATTACCCTAGG
DNA 2: GATCCCTAGGGTAATTAGATTATTAACAAGGG
B1: binds.
